Experimental data: US20260274955A1 (JANUX THERAPEUTICS, published 2026)

How the values were obtained:
[1] = molecular target: T1, Anti-CD28 Fab (SEQ ID NOs: 202, 203); experiment: phage binding ELISA, Fab on plate;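 also: clonal phage supernatant ELISA, wells preincubated with CD28 antigen or blocking buffer only, then bound phage detected using HRP-linked anti-M13 antibody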
T1 construct: biotinylated and captured on neutravidin coated plates in the phage ELISA
Procedure: (§1) After panning, phage infected bacteria were plated out and colonies picked into 96 well blocks. Clonal phage was then amplified and separated from bacterial cells via centrifugation.
(§2) Clonal phage were harvested as crude supernatants and screened via standard ELISAs. […] Prior to the addition of clonal phage, wells were incubated with blocking buffer and CD28 antigen or blocking buffer alone. Without washing or aspirating, clonal phage supernatants were then added to the wells and incubated for a short time. Wells were then washed followed by detection of bound phage using a horse radish conjugated anti-M13 antibody. Clonal phage of interest were then sent for sequence analysis.

[2] = molecular target: T1, Anti-CD28 Fab (SEQ ID NOs: 202, 203); experiment: phage binding ELISA, Fab on plate, CD28 as competitor
Procedure: as §1, §2

[3] = molecular target: anti-CD28 Fab (SEQ ID NOs: 202, 203); experiment: phage binding ELISA; biotinylated anti-CD28 Fab captured on neutravidin plate, clonal phage supernatant, anti-M13-HRP detection;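 also: before crude clonal phage supernatants were added, wells were preincubated with CD28 antigen in blocking buffer or with blocking buffer only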
anti-CD28 Fab (SEQ ID NOs: 202, 203), sequence (VH, as listed by the source, chain 1 of 2): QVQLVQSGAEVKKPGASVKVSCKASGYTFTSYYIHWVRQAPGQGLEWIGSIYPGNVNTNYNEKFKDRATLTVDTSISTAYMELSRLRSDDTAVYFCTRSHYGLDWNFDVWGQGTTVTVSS
anti-CD28 Fab (SEQ ID NOs: 202, 203), sequence (VL, as listed by the source, chain 2 of 2): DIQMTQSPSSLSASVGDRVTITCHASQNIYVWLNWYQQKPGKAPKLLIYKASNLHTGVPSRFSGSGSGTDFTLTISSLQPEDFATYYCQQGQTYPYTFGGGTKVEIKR
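For Anti-CD28 Fab signal in the presence of CD28 in this document: coated wells pre-incubated with CD28 antigen or with blocking buffer only, then crude clonal phage supernatant added briefly, and retained phage read out via HRP-linked anti-M13 antibody.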
Procedure: as §1, §2

T1 sequence (VH, as listed by the source, chain 1 of 2): as the sequence (VH, as listed by the source, chain 1 of 2) above
T1 sequence (VL, as listed by the source, chain 2 of 2): as the sequence (VL, as listed by the source, chain 2 of 2) above

Binder	Anti-CD28 Fab (SEQ ID NOs: 202, 203) signal [1]	Anti-CD28 Fab signal in the presence of CD28 [2]	Anti-CD28 Fab (SEQ ID NOs: 202, 203) signal [3]
WCAAGAMYPWPLCL [Phage-1049]	1.67	0.06	–
TCSAGASYPWPVCL [Phage-1048]	1.67	0.07	–
WCAAFFHYPWPQCF [Phage-1232]	–	–	0.87
ECGWEPGQHWRVCF [Phage-1238]	–	–	0.82
QCAAGASYPWPVCL [Phage-1008]	1.82	0.07	–
TCSAGATFHWPQCF [Phage-1006]	1.83	0.08	–
TCAAGATWVWPTCF [Phage-1228]	–	–	0.92
TCSAGATYNWPWCF [Phage-1047]	1.68	0.05	–
PCAAGAHYVWPVCF [Phage-1221]	–	–	0.97
TCAAGAMWQWPVCL [Phage-1010]	1.81	0.06	–
TCSAGATYKWPTCL [Phage-1222]	–	–	0.97
RCAAGVMYDWPVCL [Phage-1043]	1.7	0.07	–
RCKAGVPYKWPMCL [Phage-1233]	–	–	0.87
MCAAGAMYNWPLCL [Phage-1224]	–	–	0.95
LCKPGVPYQWPTCF [Phage-1009]	1.82	0.05	–
SCAAGASYSWPLCF [Phage-1225]	–	–	0.95
SCAAGAHYVWPFCF [Phage-1046]	1.68	0.08	–
TCSAGAMYNWPECF [Phage-1229]	–	–	0.92
PCSAGATYAWLYCV [Phage-1011]	1.81	0.06	–
LCSAGAMYPWPLCY [Phage-1051]	1.66	0.08	–
QCAAGFSYTWPECY [Phage-1231]	–	–	0.9
VCAAGAAYPWPACL [Phage-1226]	–	–	0.93

Binder	Anti-CD28 Fab (SEQ ID NOs: 202, 203) signal [1]	Anti-CD28 Fab signal in the presence of CD28 [2]	Anti-CD28 Fab (SEQ ID NOs: 202, 203) signal [3]
TCAAGASWDWPFCF [Phage-1237]	–	–	0.82
TCSAGAHYPWPMCL [Phage-1227]	–	–	0.93
TCAAGAGWAWPFCF [Phage-1056]	1.65	0.09	–
TCSAGAMYSWPLCI [Phage-1230]	–	–	0.91
SCAAGLSYPWPDCL [Phage-1055]	1.65	0.07	–
TCAAGAKYVWPLCF [Phage-1235]	–	–	0.85
LCAAGANYPWPACL [Phage-1053]	1.66	0.07	–
SCAAGAAYPWPACL [Phage-1013]	1.8	0.06	–
TCAAGATYEWPSCI [Phage-1234]	–	–	0.86
SCAAGAHWSWPACL [Phage-1223]	–	–	0.97
SCAAGATYTWPMCI [Phage-1054]	1.66	0.07	–
LCEAGFNYDWPRCL [Phage-1236]	–	–	0.85
TCSAGAHWTWPLCF [Phage-1044]	1.69	0.06	–
LCRAGAMWPWPTCL [Phage-1005]	1.83	0.06	–
SCAAGATYKWPACF [Phage-1240]	–	–	0.8
LCAAVFAYTWPMCF [Phage-1220]	–	–	0.98
SCSAGAMWLWPECF [Phage-1241]	–	–	0.8
SCAAGATYEWPTCL [Phage-1239]	–	–	0.81
TCSAGAHYEWPYCL [Phage-1007]	1.82	0.11	–
TCAAGAMWVWPTCL [Phage-1052]	1.66	0.07	–
TCSAGAHFAWPMCF [Phage-1045]	1.69	0.07	–
